The chains are these.
B1: Chlamydomonas IFT74_(128-C) (domain or fragment, Chlamydomonas reinhardtii, UniProt Q6RCE1 128-641, looked up)
chain: GVGRQVLDKNYFMNELRQKRMEIAQVTSNMKSDLEALERKQAQYNSMDKRASDLSKEVKILQEALADYNTVLDKVGSQAPVYVIQQEFAALKDRNEQQRKRVDEVLTERLNLESKAKQAESKMSEIQASMDQRLNSMPPSQRNEYTTLVAEQQQLQADSKRFEEVLDELDKALQASEGELARNPFKQRSLQLQEQIRALTEKKYELTEEERQSKRSPEELRADLMAKIKRDNTEVEQMTQQIRELQDQIKKMEERVKSLGGATSGAAAAEEKANREKFEELLAKERDLNNFMDGFPSRKAAKMQEKQQKEDGIVGVLEKMVKMQGIIGSNLPSQKKYKEMQDELEYKKMQLENTQTTQERLKEELTMRRTELEKIDTLEDKIKLELTQLAERQEAMEKEMGEFGSVEDIQRKANAARERMEGLRSVLLKRKDLLRSIVAERGLKFQAKRAQLQDHNLQVQLEKMEAKLKNLSAGVFEMDEFIKAKESETNYRQLASNIAALVDDLNVHVKKAVV

Test [1] addresses T1, Chlamydomonas IFT81 (Chlamydomonas reinhardtii, UniProt Q68RJ5 1-683).
T1 sequence (looked up): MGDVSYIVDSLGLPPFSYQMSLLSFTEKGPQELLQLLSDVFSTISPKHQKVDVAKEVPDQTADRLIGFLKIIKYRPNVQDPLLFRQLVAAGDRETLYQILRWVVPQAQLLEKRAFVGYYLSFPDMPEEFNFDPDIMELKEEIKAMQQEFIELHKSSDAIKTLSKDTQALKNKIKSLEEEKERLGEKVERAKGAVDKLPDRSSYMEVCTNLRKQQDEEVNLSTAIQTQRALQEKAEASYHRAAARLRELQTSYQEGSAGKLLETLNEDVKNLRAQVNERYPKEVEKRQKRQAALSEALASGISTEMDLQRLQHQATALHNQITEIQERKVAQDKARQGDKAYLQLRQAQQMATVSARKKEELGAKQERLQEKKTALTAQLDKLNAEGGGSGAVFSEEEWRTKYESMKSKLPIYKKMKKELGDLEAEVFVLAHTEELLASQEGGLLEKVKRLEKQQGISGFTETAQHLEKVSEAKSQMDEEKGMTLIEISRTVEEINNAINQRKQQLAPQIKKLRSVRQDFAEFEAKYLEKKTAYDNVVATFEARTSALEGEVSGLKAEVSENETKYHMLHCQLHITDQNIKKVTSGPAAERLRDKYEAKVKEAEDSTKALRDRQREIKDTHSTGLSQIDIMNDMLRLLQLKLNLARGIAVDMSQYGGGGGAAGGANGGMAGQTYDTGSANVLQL
As to the kind of experiment: cross-linking.

Test [2] addresses T2, CrIFT172_(1-968) (Chlamydomonas reinhardtii, UniProt Q5DM57 1-968).
T2 sequence (looked up): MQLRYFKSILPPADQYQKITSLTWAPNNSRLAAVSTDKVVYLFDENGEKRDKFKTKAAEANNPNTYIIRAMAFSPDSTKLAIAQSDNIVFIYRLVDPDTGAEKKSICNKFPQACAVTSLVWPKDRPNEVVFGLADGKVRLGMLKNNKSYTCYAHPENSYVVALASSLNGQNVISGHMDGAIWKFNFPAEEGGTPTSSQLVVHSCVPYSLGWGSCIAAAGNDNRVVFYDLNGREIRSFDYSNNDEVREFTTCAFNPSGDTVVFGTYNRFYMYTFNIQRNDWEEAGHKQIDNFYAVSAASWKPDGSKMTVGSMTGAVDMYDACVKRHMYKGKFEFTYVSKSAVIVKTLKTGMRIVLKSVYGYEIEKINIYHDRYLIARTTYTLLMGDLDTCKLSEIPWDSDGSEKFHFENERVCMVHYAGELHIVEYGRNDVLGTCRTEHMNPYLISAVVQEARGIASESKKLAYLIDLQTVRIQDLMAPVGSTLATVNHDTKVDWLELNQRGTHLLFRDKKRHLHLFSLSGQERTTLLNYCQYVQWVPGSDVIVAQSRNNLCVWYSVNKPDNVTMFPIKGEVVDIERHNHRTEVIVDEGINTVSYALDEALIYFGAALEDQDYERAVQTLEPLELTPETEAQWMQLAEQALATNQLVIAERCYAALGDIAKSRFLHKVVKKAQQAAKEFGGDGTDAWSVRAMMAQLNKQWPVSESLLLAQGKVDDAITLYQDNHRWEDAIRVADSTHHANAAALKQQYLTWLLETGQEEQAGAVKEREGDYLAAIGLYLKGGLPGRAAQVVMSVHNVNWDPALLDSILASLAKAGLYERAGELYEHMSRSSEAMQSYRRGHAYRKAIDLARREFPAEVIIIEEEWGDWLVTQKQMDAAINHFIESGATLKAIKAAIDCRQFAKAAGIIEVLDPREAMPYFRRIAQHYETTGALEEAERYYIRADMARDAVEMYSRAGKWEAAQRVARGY
The test can be described thus: pull-down.

In test [3] the target is T3, Chlamydomonas IFT81/74_(128-C) heterodimer within the IFT-B1 nonamer (Chlamydomonas reinhardtii, UniProt Q68RJ5 1-683; Q6RCE1 128-641).
T3 sequence (looked up) 1: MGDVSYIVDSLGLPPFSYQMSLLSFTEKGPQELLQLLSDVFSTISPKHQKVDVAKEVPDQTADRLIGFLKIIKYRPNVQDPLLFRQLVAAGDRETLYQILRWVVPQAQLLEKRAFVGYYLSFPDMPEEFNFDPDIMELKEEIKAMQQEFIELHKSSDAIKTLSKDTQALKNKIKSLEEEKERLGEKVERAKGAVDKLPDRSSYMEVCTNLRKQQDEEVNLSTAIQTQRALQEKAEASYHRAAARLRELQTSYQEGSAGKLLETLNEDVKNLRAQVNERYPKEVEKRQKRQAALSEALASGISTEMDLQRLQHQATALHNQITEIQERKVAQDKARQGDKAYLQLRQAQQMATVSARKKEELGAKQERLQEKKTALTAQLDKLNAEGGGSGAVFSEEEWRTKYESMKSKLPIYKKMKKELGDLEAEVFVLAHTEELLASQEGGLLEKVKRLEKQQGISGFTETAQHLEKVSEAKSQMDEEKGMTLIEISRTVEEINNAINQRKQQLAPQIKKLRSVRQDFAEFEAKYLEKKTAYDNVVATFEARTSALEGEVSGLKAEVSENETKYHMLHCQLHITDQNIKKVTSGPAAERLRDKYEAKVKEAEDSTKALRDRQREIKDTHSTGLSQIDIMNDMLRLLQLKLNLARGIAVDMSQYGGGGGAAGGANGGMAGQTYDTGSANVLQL
T3 sequence (looked up) 2: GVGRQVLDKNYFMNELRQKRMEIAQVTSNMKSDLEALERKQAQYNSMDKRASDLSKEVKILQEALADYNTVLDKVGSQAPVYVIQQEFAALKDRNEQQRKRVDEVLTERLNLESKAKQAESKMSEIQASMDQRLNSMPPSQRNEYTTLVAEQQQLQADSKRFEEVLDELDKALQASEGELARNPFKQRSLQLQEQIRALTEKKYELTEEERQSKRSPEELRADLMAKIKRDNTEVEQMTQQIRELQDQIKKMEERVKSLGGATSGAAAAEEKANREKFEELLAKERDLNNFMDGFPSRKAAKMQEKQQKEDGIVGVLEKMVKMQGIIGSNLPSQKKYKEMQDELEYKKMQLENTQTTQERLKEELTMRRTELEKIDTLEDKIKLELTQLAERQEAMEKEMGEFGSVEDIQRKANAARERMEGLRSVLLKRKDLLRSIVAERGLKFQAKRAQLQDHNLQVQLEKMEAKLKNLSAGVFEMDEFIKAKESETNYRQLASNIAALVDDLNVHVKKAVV
The test can be described thus: cross-linking.

Test [4] deals with B1. The test can be described thus: cross-linking.

B1: the binding result in test [1] is listed as “binds”.

B2: GST-tagged CrIFT57_(1-234) (domain or fragment, Chlamydomonas reinhardtii, UniProt Q2XQY7 1-234, looked up)
chain: MSSKRGGRSSLAKAPEEAVNGEAFAPEASPPPPGDDGDAGGEDGGAPAPPPPPATKGGPVAVGRSLEIQTTPDVCMEMLADKLKLLNYEADFCRKKKPYRKPLSRLYFAVPLANSSEQFFYFTSLATWLLGLAGVELPAPKEFDDPNLTCQNILGAVKKLGFAPPSYHPTKLTVGNGKEVVGVLDGLVDFVLERRHHKYSRPAYGNDGQPEEGVQLDDEAEAAAMEGADELAMP
For the molecule B2, the binding result in test [2] is given as “binds”.

B3: Chlamydomonas IFT25_(1-136) (domain or fragment, Chlamydomonas reinhardtii, UniProt B8LIX8 1-136, looked up)
chain: MKDYAREENGGLVVMASCSDERFPPENMLDGKDNTFWVTTGMFPQEFVLRLESCIRVSKITTLSLNVRKLAVEKCDQDKPDQFEKVFEVELANRGDRLQTEVHQVNIRAKYLKFILLQGHGEFATVNRVSVVGGDD
For the molecule B3, the binding result in test [3] is “binds”.

B4: Chlamydomonas IFT27 (natural protein, Chlamydomonas reinhardtii)
chain: MVKKEVKPIDITATLRCKVAVVGEATVGKSALISMFTSKGSKFLKDYAMTSGVEVVVAPVTIPDTTVSVELFLLDTAGSDLYKEQISQYWNGVYYAILVFDVSSMESFESCKAWFELLKSARPDRERPLRAVLVANKTDLPPQRHQVRLDMAQDWATTNTLDFFDVSANPPGKDADAPFLSIATTFYRNYEDKVAAFQDACRNY
B4: the binding result in test [3] is “binds”.

B5: Chlamydomonas IFT46_(188-319) (domain or fragment, Chlamydomonas reinhardtii, UniProt A2T2X4 188-319, looked up)
chain: QLRQLSKEAPGAKADMVGRLEHTDENKAKKIQQWIASINDIHKAKPAATVNYSKRMPEIEALMQEWPPEVETFLKTMHMPSGDVELDIKTYARLVCTLLDIPVYDDPVESLHVLFTLYLEFKNNPIFRQHME
Regarding B5, the binding result in test [1] and in test [4] was “binds” each time.

For the origin of these results see paper doi:10.1101/2022.08.20.504624 (bioRxiv, 2022).
